In patent US20130079286A1 (Pieris, published 2013):

Assays:
[1] = target: T1, Aβ40 hexamer VFFAED on SPOT membrane; experiment: SPOT membrane, hexameric and decameric peptides
T1 construct: Called a minimal motif found with the hexameric and decameric peptides
T1 peptide: Ac-VFFAED-{SPOT membrane}
Protocol: (§1) The SPOT membrane (Amino-PEG500-UC540 sheet, 100×150 mm, Intavis, Köln, Germany) for mapping the Aβ epitope of the Lcn2 muteins S1-A4 and US7 was prepared in an automated procedure as described by Frank ((2002) J. Immunol. Methods 262, 13-26) using a MultiPep RS instrument (Intavis, Köln, Germany) and activated amino acids from the same vendor. The Aβ40 amino acid sequence (SEQ ID NO: 29) was synthesized on the membrane in successive hexamers, decamers, and pentadecamers, each with a dislocation of 1 amino acid, thus covering the entire sequence. The C-termini of these peptides became covalently attached to the membrane whereas their N-termini were acetylated. Immobilized Strep-tag II served as a positive control for the detection method.
(§2) Prior to use, the membrane was washed once with ethanol, 3 times with PBS (4 mM KH₂PO₄, 16 mM Na₂HPO₄, 115 mM NaCl, pH 7.4), and blocked with 3% (w/v) BSA in PBS/T (PBS containing 0.1% (v/v) Tween 20) for 1 h. […]
(§3) Comparison of the membranes incubated with S1-A4 and wild-type Lcn2, respectively, yielded prominent spots that only occurred upon incubation of the membrane with S1-A4 and not with wild-type Lcn2. […] With the shorter hexameric and decameric peptide sequences binding of S1-A4 to the minimal motives VFFAED and FFAEDV was detected.

[2] = target: T2, Aβ40 hexamer FFAEDV on SPOT membrane; experiment: SPOT membrane, hexameric and decameric peptides
T2 construct: Called a minimal motif found with the hexameric and decameric peptides
T2 peptide: Ac-FFAEDV-{SPOT membrane}
Protocol: as §1, §2, §3

central peptide Aβ16-27 = target: T3, central peptide Aβ16-27; experiment: capture ELISA: mutein captured, Aβ16-27 titrated
T3 construct: Bought from the Peptide Speciality Laboratory
T3 peptide: KLVFFAEDVGSN

[3] = target: T4, Aβ40 peptide, non-labeled (human); experiment: SPOT membrane of overlapping Aβ40 peptides, 50 nM mutein
T4 construct: Non-labeled synthetic peptide (W. M. Keck Laboratory); also called Abeta40; amyloid beta peptide

MBP-Aβ40 fusion protein = target: T5, MBP-Aβ40 fusion protein; experiment: SPR (Biacore), MBP-Aβ40 amine-coupled (1455 RU), mutein as analyte
T5 construct: the entry may be a nucleic acid; Biotin-labelled in the capture ELISA, unlabeled in the direct ELISA and SPR; also called MBP-Abeta40
Protocol: FIG. 8 depicts the kinetic real time analysis of Lcn2 muteins S1-A4 (A) and US7 (B) measured on a Biacore instrument at a flow rate of 10 μl/min. The MBP-Aβ40 fusion protein was coupled via amine chemistry on a CMD 200I chip (ΔRU=1455) and each of the purified Lcn2 muteins was applied in a series at different concentrations. The measured signal is shown as a grey line whereas the curve fit is depicted as a black line in each case.
Real time analysis of Lcn2 muteins was performed on a Biacore X system (Biacore, Uppsala, Sweden) using PBS/T (PBS containing 0.005% (v/v) Tween 20) as running buffer. A 50 μg/mL solution of MBP-Aβ40 from Example 2 in 10 mM Na-acetate, pH 4.5 was immobilized onto a […] chip (Xantec, Düsseldorf, Germany) using standard amine coupling chemistry, resulting in a ligand density of 1455 resonance units (RU). […] The sensorgrams were corrected by subtraction of the corresponding signals measured for the control channel, which had been activated and blocked with ethanolamine. […] During this step the kₒₙ and koff rates were fitted globally, while the maximum response difference Rₘₐₓ was fitted locally for each curve.

Trx-Aβ28 fusion protein = target: T6, Trx-Aβ28 fusion protein (Escherichia coli (strain K12), UniProt P0AA25 1-76 = thioredoxin, Biotin-labelled through an NHS ester (2:1) in the capture and competitive ELISAs; unlabeled in the direct ELISA and as competitor.); experiment: capture ELISA: mutein captured, biotinylated Trx-Aβ28 titrated
T6 construct: the entry may be a nucleic acid; also called TrxAbeta28H6
Protocol: FIG. 5 depicts the binding activity of the Lcn2 muteins H1-G1, S1-A4, and US7 in capture ELISAs with different biotinylated Aβ targets. StrepMAB-Immo at 10 μg/ml was immobilized on microtitre plates and employed for capturing of 1 JAM Lcn2 muteins via the Strep-tag H. In figures A to C the binding of the Lcn2 muteins S1-A4 and US7 to (A) biotinylated Aβ40, (B) biotinylated Trx-Aβ28, and (C) biotinylated MBP-Aβ40 are shown. Binding was detected by incubation with ExtrAvidin/AP and a subsequent chromogenic reaction with pNPP. Ovalbumin (Ova), thioredoxin (Trx), and maltose binding protein (MBP) were used as negative controls. Additionally, binding of wild-type (wt) lipocalin was tested. The data were fitted to a monovalent binding model.
For selective capturing of the Lcn2 muteins carrying the C-terminal Strep-tag II (Schmidt and Skerra (2007) Nat. Protoc. 2, 1528-1535), a 96-well MaxiSorp polystyrene microtitre plate (Nunc, Langenselbold, Germany) was coated with 10 μg/mL StrepMAB-Immo (IBA, Göttingen, Germany) in PBS over night at 4° C. and blocked with 3% (w/v) BSA in PBS/T at room temperature for 1 h. After 3 washing steps with PBS/T, 50 μL of a 1 μM solution of the purified Lcn2 muteins from Example 7 were applied to all wells for 1 h. After washing, 50 μL of a dilution series of the biotinylated targets Aβ40, MBP-Aβ40 or Trx-Aβ28 from Example 2 were added and incubated for 1 h whereby the biotinylated forms of Ova, MBP and Trx from Example 2 served as negative control proteins. The wells were washed again and bound conjugate was detected with 50 μL of ExtrAvidin/AP conjugate (Sigma-Aldrich, Steinheim, Germany) diluted 1:5000 in PBS/T for 1 h, followed by signal development in the presence of 100 μL 0.5 mg/mL p-nitrophenyl phosphate (AppliChem, Darmstadt, Germany) in 100 mM Tris/HCl, pH 8.8, 100 mM NaCl, 5 mM MgCl₂.

T4 sequence (peptide, as listed by the source): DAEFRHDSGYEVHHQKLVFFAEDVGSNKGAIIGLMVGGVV

B1: Lcn2 mutein S1-A4 (designed binder)
chain: QDSTSDLIPAPPLSKVPLQQNFQDNQFHGKWYVVGVAGNYTLREDKDPLKMYATIYELKEDKSYNVTSVGFRLKKCNYKIRTFVPGSQPGEFTLGIIKSQPGMTSYLVRVVSTNYNQHAMVFFKTVGQNREMFNITLYGRTKELTSELKENFIRFSKSLGLPENHIVFPVPIDQCIDG
In the case of B1, the binding result [1] is reported as “binds”, the binding result [2] is reported as “binds” and the Kd (central peptide Aβ16-27) is reported as 2.6 nM. The binding result [3] was “binds”, the koff (MBP-Aβ40 fusion protein) was 8.36e-05 s⁻¹ and the kon (MBP-Aβ40 fusion protein) was 48000 M⁻¹ s⁻¹. It also gave a Kd (Trx-Aβ28 fusion protein) of 1.9 nM.
